From PMC3350781 (Current Biology, 2011) come the findings set out here.

The assay has as its target T1, Wsp1p poly (p)-VCA (residues 129-574 including the polyproline domain and VCA) (S. pombe, UniProt O36027 129-574).
T1 sequence (looked up): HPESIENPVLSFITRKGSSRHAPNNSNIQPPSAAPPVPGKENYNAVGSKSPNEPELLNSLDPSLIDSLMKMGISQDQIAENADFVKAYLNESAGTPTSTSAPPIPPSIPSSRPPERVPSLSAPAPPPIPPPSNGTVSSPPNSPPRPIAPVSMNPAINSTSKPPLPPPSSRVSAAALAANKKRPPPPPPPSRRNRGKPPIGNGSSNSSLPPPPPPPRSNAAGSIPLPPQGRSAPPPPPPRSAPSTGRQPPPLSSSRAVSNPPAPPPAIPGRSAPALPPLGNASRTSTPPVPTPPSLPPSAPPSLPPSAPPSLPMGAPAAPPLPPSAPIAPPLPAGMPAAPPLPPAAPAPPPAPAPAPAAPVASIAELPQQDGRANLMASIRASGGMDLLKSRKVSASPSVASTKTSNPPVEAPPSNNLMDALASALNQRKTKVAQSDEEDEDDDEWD
Kind of assay: pull-down.

B1: GST-Bzz1pSH3 (residues 586-642) (domain or fragment, S. pombe, UniProt Q09746 586-642, looked up)
chain: SSYVKALYAYTAQSDMELSIQEGDIIQVTNRNAGNGWSEGILNGVTGQFPANYVTDV
A word on the Kd: it is the constant that tells how readily two partners part at equilibrium. Low values mean higher affinity, high ones lower affinity. Molecule B1 gave a Kd of about 2000 nM.

B2: GST-Bzz1pSH3SH3 (residues 521-642) (domain or fragment, S. pombe, UniProt Q09746 521-642, looked up)
chain: VVLYDFTGEHEGVITASEGQEFTLLEPDDGSGWVRVKIDGTDGLIPASYVKLNDELNTSVTLDGDSSYVKALYAYTAQSDMELSIQEGDIIQVTNRNAGNGWSEGILNGVTGQFPANYVTDV
Regarding B2, the Kd was about 100 nM.
